Biological target: cynomolgus monkey FcRn (cynomolgus monkey) (UniProt Q8SPV9)
Test: SPR; Biacore T200, pH 6.0; antibody and FcRn; who was immobilised is not told (details in Supplementary Information)

Chain of UniProt Q8SPV9 (Q8SPV9 24-365): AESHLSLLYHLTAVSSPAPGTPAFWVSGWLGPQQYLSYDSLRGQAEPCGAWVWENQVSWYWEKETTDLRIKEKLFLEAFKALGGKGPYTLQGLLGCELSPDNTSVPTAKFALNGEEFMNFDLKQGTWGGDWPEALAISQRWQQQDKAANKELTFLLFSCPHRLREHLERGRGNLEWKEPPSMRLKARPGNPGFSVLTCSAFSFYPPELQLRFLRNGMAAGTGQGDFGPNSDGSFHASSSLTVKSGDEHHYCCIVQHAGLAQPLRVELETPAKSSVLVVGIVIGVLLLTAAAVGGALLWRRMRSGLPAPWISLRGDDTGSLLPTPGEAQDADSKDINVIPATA

Kd: 1980 nM
Substance: trastuzumab (antibody)
